From patent US8933202B2, “AXL antibodies” (U3 Pharma GmbH, priority 2007, dated 2015)

Target: T1, AXL (Homo sapiens, UniProt P30530)
T1 sequence (P30530 26-894): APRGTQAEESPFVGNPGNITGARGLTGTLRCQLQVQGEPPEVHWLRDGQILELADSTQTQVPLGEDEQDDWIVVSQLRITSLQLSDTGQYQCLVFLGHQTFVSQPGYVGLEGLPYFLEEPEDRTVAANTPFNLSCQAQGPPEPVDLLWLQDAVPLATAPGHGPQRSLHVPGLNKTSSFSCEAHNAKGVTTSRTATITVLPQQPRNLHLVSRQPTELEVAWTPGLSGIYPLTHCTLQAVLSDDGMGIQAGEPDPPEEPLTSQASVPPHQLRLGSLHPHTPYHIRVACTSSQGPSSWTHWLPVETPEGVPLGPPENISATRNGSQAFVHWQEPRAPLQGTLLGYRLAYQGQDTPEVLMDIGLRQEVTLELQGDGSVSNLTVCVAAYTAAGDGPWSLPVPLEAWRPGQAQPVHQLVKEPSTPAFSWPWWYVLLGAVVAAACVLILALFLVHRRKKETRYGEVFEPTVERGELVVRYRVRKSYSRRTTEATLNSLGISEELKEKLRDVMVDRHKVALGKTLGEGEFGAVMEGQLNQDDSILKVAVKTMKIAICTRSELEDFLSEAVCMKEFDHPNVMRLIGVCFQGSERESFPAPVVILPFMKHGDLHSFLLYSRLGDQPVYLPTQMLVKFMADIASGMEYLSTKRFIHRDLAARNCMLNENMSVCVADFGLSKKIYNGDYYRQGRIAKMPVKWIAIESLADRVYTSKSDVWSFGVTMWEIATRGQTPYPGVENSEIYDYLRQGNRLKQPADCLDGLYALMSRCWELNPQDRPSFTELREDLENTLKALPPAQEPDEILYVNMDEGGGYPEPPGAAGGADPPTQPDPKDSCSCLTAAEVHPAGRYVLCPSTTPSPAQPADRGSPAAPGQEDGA
Assay: Axl phosphorylation ELISA, rat versus chimeric antibody
Format: cell-based
Parameters: endogenous in cells; host or cells: CaSki cervical cancer cells
Procedure: In order to investigate whether the rat anti-Axl antibodies of the invention and the corresponding chimeric anti-Axl antibodies of the invention were able to inhibit ligand Gas6-mediated Axl activation in vitro to similar extent, ELISA experiments on CaSki cervical cancer cells were performed. Gas6-mediated Axl activation was thereby detected by increased receptor tyrosine phosphorylation. In brief, on day 1, 3×10^4 cells per well were seeded in normal growth medium in flat-bottom 96 well plates. The next day, growth medium was replaced by serum-free medium to starve cells over night for 24 h. Also over night, black Maxi-Sorp 96 well plates (Nunc) were coated with mouse anti-phospho-tyrosine antibody 4G10 at 2 μg/ml PBS and 4° C. On day 3, the 4G10 antibody solution was removed and Maxi-Sorp wells were blocked with PBS, 0.5% BSA for at lest 4 h at room temperature. In parallel, cells were pre-incubated with 50 ng/ml, 100 ng/ml, 300 ng/ml, 750 ng/ml, 1 μg/ml, and 10 μg/ml of rat anti-Axl antibody 11B7 or chimeric anti-Axl antibody ch11B7 for 1 h at 37° C. and subsequently treated with or without 400 ng/ml Gas6 (R&D Systems) for 10 min at 37° C. […] Using a Victor plate reader (Perkin Elmer), the fluorescence of each well was collected at an excitation wavelength of 430 nm and an emission wavelength of 580 nm.

ligand-induced Axl activation in melanoma cell line C-8161 (same experimental settings, C-8161): Comparable effects
B1: 11B7: antagonistic rat anti-AXL monoclonal antibody, rat IgG1 (antibody, V domains shown)
VL: DIQMTQAPSSLPASLGDRVTITCRASQDIGNYLRWFQQKPGKSPRLMISGATNLAAGVPSRFSGSRSGSDYSLTISSLESEDMADYYCLQSKESPWTFGGGTKLELK
VH: EVQLQESGPGLVKPSQSLSLTCSVTGYSITSNYWGWIRKFPGDKMEWMGYITYSGSTSYNPSLKSRISITRDTSKNQFFLQLNSVTSEDTATYYCAITTFYYWGQGVMVTVSS
ligand-induced Axl activation (relative Axl phosphorylation), concentration-dependent (50 ng/ml to 10 μg/ml antibody, 400 ng/ml Gas6, CaSki cervical cancer cells): able to block ligand-induced activation of the receptor tyrosine kinase Axl to similar extent
